The results in this text go back to patent US11957716B2 (Immatics Biotechnologies GmbH, priority 2021, dated 2024).

Assay [1] concerns HLA-A*01:01, HLA-A*02:01, HLA-A*03:01, HLA-A*24:02, HLA-B*07:02, HLA-B*08:01 and HLA-B*44:02. The assay is described as follows: HLA alleles the peptides bind to (Table 7). It counts as binding, human. To be noted: allotype from the group HLA-A*01:01, HLA-A*02:01, HLA-A*03:01, HLA-A*24:02, HLA-B*07:02, HLA-B*08:01, HLA-B*44:02. From the text:
However, due to similarities in binding pattern such as the relevant anchoring positions some peptides bind to more than one allele, such an overlap is most likely, but not limited to, HLA-A*01 binding peptides also binding to HLA-B*15, HLA-A*03 binding peptides also binding to HLA-A*11, HLA-B*07 binding peptides also binding to HLA-B*35 and HLA-B*51.

For a further assay, the target named is HLA-A*02:01 (Homo sapiens, UniProt P04439, D140Y/D185E/D98H/E176V/E277Q/G131W/G231S/I119V/I121R/I166T/I218V/L300P/L318F/N151K/N90K/P208A/P217A/Q86G/Q94H/R138H/R169H/T345S). Description: MHC binding assay, UV-ligand exchange ELISA. Particulars: peptide exchange yield, binding to HLA-A*02:01. On the technique in general: ELISA stands for enzyme-linked immunosorbent assay.

A further assay addresses HLA-B*44:05 (Homo sapiens, UniProt P01889, A223V/A65T/A93T/A95T/D201E/D98Y/E176V/E187L/E204Q/E69K/G107R/H137Y/K202T/L105A/L119I/N104T/N87E/Q56L/Q94N/R106L/R155S/R180D/S101N/S121R/S35A/S48T/T118I/V36M/W191S/Y91S). The assay is described as follows: MHC binding assay, UV-ligand exchange ELISA. Particulars: peptide exchange yield, binding to HLA-B*44:05.
A further assay concerns the target HLA-A*24:02 (Homo sapiens, UniProt P04439, D101N/D140Y/D185E/E176V/E190D/F33S/G103R/G107R/I119L/I121M/I306V/K335N/L105A/L180Q/L300P/N151K/N90K/Q86E/Q94H/R106L/R138H/R89G/T104I/T345S/V100E/W191G/Y123F). Description: MHC binding assay, UV-ligand exchange ELISA. To be noted: peptide exchange yield, binding to HLA-A*24:02.

Turning to “4 (IQAPALLKV; listed as Homo sapiens) [compound 4]”, the “Binders (HLA alleles the peptides according to the invention bind to)” value (“Binders” below) in assay [1] was “HLA-A*02:01”. In addition, the Peptide exchange entry with HLA-A*02:01 was “++++ (≥75% = ++++)”.

“5 (METADRPEW; listed as Homo sapiens) [compound 5]”: the Peptide exchange entry in the assay with HLA-B*44:05 is given as “++++ (75% = ++++)”.

On to “9 (LLGVVSHSV; listed as Homo sapiens) [compound 9]”, for which, in assay [1], the “Binders” value is reported as “HLA-A*02:01”. Further, in the assay with HLA-A*02:01, the Peptide exchange result was “++++ (≥75% = ++++)”.

On to “10 (ILMILQPQL; listed as Homo sapiens) [compound 10]”, for which, in assay [1], the “Binders” value is listed as “HLA-A*02:01”. Moreover, in the assay with HLA-A*02:01, the Peptide exchange result is listed as “++++ (≥75% = ++++)”.

For the substance “11 (TEIGTVIKLF; listed as Homo sapiens) [compound 11]”, the Peptide exchange result with HLA-B*44:05 is “++++ (75% = ++++)”.

For the substance “12 (RLQEGLAAL; listed as Homo sapiens) [compound 12]”, the “Binders” value in assay [1] is reported as “HLA-A*02:01”. For the same substance, the Peptide exchange result in the assay with HLA-A*02:01 is given as “++++ (≥75% = ++++)”.

As to “18 (SLSKLVATV; listed as Homo sapiens) [compound 18]”, the “Binders” value in assay [1] was “HLA-A*02:01”. In the assay with HLA-A*02:01, the Peptide exchange entry is reported as “++++ (≥75% = ++++)”.

On to “23 (AETKQFWSA; listed as Homo sapiens) [compound 23]”, for which the Peptide exchange entry with HLA-B*44:05 was “++++ (75% = ++++)”.

As to “30 (SLKSSILFL; listed as Homo sapiens) [compound 30]”, the “Binders” value in assay [1] is recorded as “HLA-A*02:01”. For the same substance, the Peptide exchange result with HLA-A*02:01 is given as “+++ (≥50% = +++)”.

For the substance “42 (LLSRGILIL; listed as Homo sapiens) [compound 42]”, the “Binders” value in assay [1] is “HLA-A*02:01”. Also, the Peptide exchange result in the assay with HLA-A*02:01 is “++++ (≥75% = ++++)”.

On to “45 (SLFPISLTV; listed as Homo sapiens) [compound 45]”, for which the “Binders” value in assay [1] is reported as “HLA-A*02:01”. Also, the Peptide exchange result with HLA-A*02:01 was “++++ (≥75% = ++++)”.

As to “57 (IIIDRILLL; listed as Homo sapiens) [compound 57]”, the “Binders” value in assay [1] is “HLA-A*02:01”. Moreover, the Peptide exchange entry with HLA-A*02:01 was “++++ (≥75% = ++++)”.

Regarding “74 (TLNVLITL; listed as Homo sapiens) [compound 74]”, the “Binders” value in assay [1] is given as “HLA-A*02:01”. Besides, in the assay with HLA-A*02:01, the Peptide exchange entry is on record as “++ (≥20% = ++)”.

Turning to “82 (VLQSLQHEL; listed as Homo sapiens) [compound 82]”, in assay [1], the “Binders” value is listed as “HLA-A*02:01”. Also, the Peptide exchange result in the assay with HLA-A*02:01 was “++++ (≥75% = ++++)”.

In the case of “97 (ALIVLHLSL; listed as Homo sapiens) [compound 97]”, the “Binders” value in assay [1] is reported as “HLA-A*02:01”. Further, in the assay with HLA-A*02:01, the Peptide exchange result was “++ (≥20% = ++)”.

Consider “102 (FLLLEKGGEL; listed as Homo sapiens) [compound 102]”, for which the “Binders” value in assay [1] is “HLA-A*02:01”. In the assay with HLA-A*02:01, the Peptide exchange result is reported as “++++ (≥75% = ++++)”.

In the case of “105 (LVFESVVAA; listed as Homo sapiens) [compound 105]”, in assay [1], the “Binders” value was “HLA-A*02:01”. For the same substance, the Peptide exchange entry with HLA-A*02:01 was “++++ (≥75% = ++++)”.

On to “106 (GLLDAFLRL; listed as Homo sapiens) [compound 106]”, for which the “Binders” value in assay [1] was “HLA-A*02:01”. The Peptide exchange result with HLA-A*02:01 is given as “++++ (≥75% = ++++)”.

Regarding “108 (SLQESLPNA; listed as Homo sapiens) [compound 108]”, the “Binders” value in assay [1] is “HLA-A*02:01”. Besides, in the assay with HLA-A*02:01, the Peptide exchange result is “+++ (≥50% = +++)”.

Regarding “113 (ALGPMAFRV; listed as Homo sapiens) [compound 113]”, in assay [1], the “Binders” value is “HLA-A*02:01”. Also, in the assay with HLA-A*02:01, the Peptide exchange entry is “++++ (≥75% = ++++)”.

For the substance “118 (RLLRLIPIL; listed as Homo sapiens) [compound 118]”, the “Binders” value in assay [1] is “HLA-A*02:01”. Also, the Peptide exchange result with HLA-A*02:01 was “++++ (≥75% = ++++)”.

For the substance “121 (ILVTAWKGV; listed as Homo sapiens) [compound 121]”, the “Binders” value in assay [1] is on record as “HLA-A*02:01”. Besides, the Peptide exchange result with HLA-A*02:01 was “+++ (≥50% = +++)”.

Take “130 (ITPDSIPSV; listed as Homo sapiens) [compound 130]”: the “Binders” value in assay [1] is given as “HLA-A*02:01”. For the same substance, the Peptide exchange entry in the assay with HLA-A*02:01 is listed as “+++ (≥50% = +++)”.

For “142 (YMLEMDNSMKI; listed as Homo sapiens) [compound 142]”, the “Binders” value in assay [1] was “HLA-A*02:01”. In addition, the Peptide exchange entry in the assay with HLA-A*02:01 was “++++ (≥75% = ++++)”.

As for “145 (HLFSVLSAI; listed as Homo sapiens) [compound 145]”, in assay [1], the “Binders” value was “HLA-A*02:01”. For the same substance, the Peptide exchange result with HLA-A*02:01 is reported as “++++ (≥75% = ++++)”.

As to “153 (ALNLSRLTV; listed as Homo sapiens) [compound 153]”, in assay [1], the “Binders” value is “HLA-A*02:01”. Further, the Peptide exchange result with HLA-A*02:01 is on record as “++++ (≥75% = ++++)”.

Consider “163 (LWALAIPSL; listed as Homo sapiens) [compound 163]”, for which the “Binders” value in assay [1] is recorded as “HLA-A*24:02”. Moreover, in the assay with HLA-A*24:02, the Peptide exchange entry is on record as “+++ (50% = +++)”.

On to “164 (SHSSPTVSF; listed as Homo sapiens) [compound 164]”, for which the “Binders” value in assay [1] is recorded as “HLA-A*24:02”. Further, the Peptide exchange result with HLA-A*24:02 is given as “++ (20% = ++)”.

Take “165 (FYNPRPPLI; listed as Homo sapiens) [compound 165]”: the “Binders” value in assay [1] is “HLA-A*24:02”. Moreover, the Peptide exchange entry in the assay with HLA-A*24:02 is “++++ (75% = ++++)”.

With “167 (FALGPIIKQL; listed as Homo sapiens) [compound 167]”, the “Binders” value in assay [1] is reported as “HLA-A*02:01”. Further, the Peptide exchange result in the assay with HLA-A*02:01 is on record as “+++ (≥50% = +++)”.

For the substance “170 (LLDSWNILI; listed as Homo sapiens) [compound 170]”, in assay [1], the “Binders” value is “HLA-A*02:01”. For the same substance, the Peptide exchange result in the assay with HLA-A*02:01 is “++++ (≥75% = ++++)”.

Regarding “173 (IFTGRNAYF; listed as Homo sapiens) [compound 173]”, the “Binders” value in assay [1] was “HLA-A*24:02”. Further, the Peptide exchange result with HLA-A*24:02 is on record as “++++ (75% = ++++)”.

For the substance “177 (SYLKDHLSL; listed as Homo sapiens) [compound 177]”, the “Binders” value in assay [1] is listed as “HLA-A*24:02”. Moreover, the Peptide exchange entry with HLA-A*24:02 was “++++ (75% = ++++)”.

With “180 (QYLTYYPSF; listed as Homo sapiens) [compound 180]”, in assay [1], the “Binders” value is “HLA-A*24:02”. Besides, in the assay with HLA-A*24:02, the Peptide exchange entry is recorded as “++++ (75% = ++++)”.

On to “183 (VFVISGSHLF; listed as Homo sapiens) [compound 183]”, for which the “Binders” value in assay [1] was “HLA-A*24:02”. Besides, in the assay with HLA-A*24:02, the Peptide exchange entry is listed as “++++ (75% = ++++)”.

Regarding “186 (SQIKSPVVF; listed as Homo sapiens) [compound 186]”, in assay [1], the “Binders” value is on record as “HLA-A*24:02”. In the assay with HLA-A*24:02, the Peptide exchange result was “+ (10% = +)”.

For the substance “188 (KLPFFTNFL; listed as Homo sapiens) [compound 188]”, the “Binders” value in assay [1] is given as “HLA-A*02:01”. For the same substance, in the assay with HLA-A*02:01, the Peptide exchange result is given as “++++ (≥75% = ++++)”.

Consider “189 (IWRALGSLF; listed as Homo sapiens) [compound 189]”, for which, in assay [1], the “Binders” value is “HLA-A*24:02”. In addition, the Peptide exchange entry with HLA-A*24:02 is recorded as “++++ (75% = ++++)”.

On to “194 (VLYPSHSSF; listed as Homo sapiens) [compound 194]”, for which, in assay [1], the “Binders” value is “HLA-A*24:02”. In addition, the Peptide exchange result in the assay with HLA-A*24:02 is on record as “++ (20% = ++)”.

Take “195 (AWNESSAWLL; listed as Homo sapiens) [compound 195]”: the “Binders” value in assay [1] is “HLA-A*24:02”. Besides, the Peptide exchange result with HLA-A*24:02 is given as “++++ (75% = ++++)”.

On to “200 (GLLGTLRVL; listed as Homo sapiens) [compound 200]”, for which the “Binders” value in assay [1] is recorded as “HLA-A*02:01”. In addition, in the assay with HLA-A*02:01, the Peptide exchange result is listed as “++++ (≥75% = ++++)”.

Turning to “201 (VWILQKVNLAF; listed as Homo sapiens) [compound 201]”, in assay [1], the “Binders” value is reported as “HLA-A*24:02”. For the same substance, the Peptide exchange entry in the assay with HLA-A*24:02 is on record as “+++ (50% = +++)”.
